Assay results reported in the MegaScale stability set (Tsuboyama et al. 2023).

B1: HHH_rd2_0155 (parent)
chain: PPDDERKKAEKAARSGNEEKAREILERLGYSEDEARELAKRLR

Variants of: B1
Test: folding stability dG (cDNA display proteolysis); higher = more stable
Conditions: PBS, room temperature

Row | Variant | folding stability dG [kcal/mol]
1 | K8T | 1.81
2 | K8E | 2.26
3 | K8W | 1.97
4 | K8S | 1.84
5 | K8G | 1.36
6 | K8A | 2.18
7 | K8N | 1.99
8 | K8F | 1.75
9 | K8R | 2.15
10 | K8D | 1.86
11 | K8H | 1.94
12 | K8Q | 2.19
13 | K8V | 1.77
14 | K8Y | 1.62
15 | K8I | 1.84
16 | K8L | 2.22
17 | K8P | 1.14
18 | K8M | 2.18
19 | G16M | 1.33
20 | G16S | 1.22
21 | G16H | 1.32
22 | G16R | 1.11
23 | G16N | 1.23
24 | G16Y | 1.47

Row | Variant | folding stability dG [kcal/mol]
25 | G16Q | 1.04
26 | G16P | 0.825
27 | G16E | 0.965
28 | G16A | 1.15
29 | G16I | 1.2
30 | G16D | 1.24
31 | G16V | 0.998
32 | G16K | 1.22
33 | G16F | 1.53
34 | G16W | 1.42
35 | G16T | 0.813
36 | G16L | 1.54
37 | K11P | 0.889
38 | K11C | 2.29
39 | K11E | 2.5
40 | K11W | 2.14
41 | K11Y | 2.14
42 | K11N | 2.11
43 | K11Q | 2.36
44 | K11S | 1.97
45 | K11L | 2.35
46 | K11F | 2.01
47 | K11M | 2.48
48 | K11I | 2.45

Row | Variant | folding stability dG [kcal/mol]
49 | K11R | 2.47
50 | K11V | 2.19
51 | K11H | 2.32
52 | K11D | 2.38
53 | K11G | 1.39
54 | K11T | 2.11
55 | K11A | 2.43
56 | D4Q | 2.04
57 | D4Y | 1.93
58 | D4S | 2.16
59 | D4A | 2.09
60 | D4I | 2.17
61 | D4E | 2.26
62 | D4F | 2.02
63 | D4H | 1.88
64 | D4V | 2.06
65 | D4C | 2.15
66 | D4G | 1.75
67 | D4W | 2.09
68 | D4M | 1.97
69 | D4L | 2.22
70 | D4R | 1.98
71 | D4K | 1.95
72 | D4N | 1.9

Row | Variant | folding stability dG [kcal/mol]
73 | D4P | 1.88
74 | D4T | 2.17
75 | R14N | 1.3
76 | R14L | 1.79
77 | R14H | 1.6
78 | R14I | 1.84
79 | R14V | 1.75
80 | R14G | 1.04
81 | R14S | 1.44
82 | R14A | 1.78
83 | R14T | 1.41
84 | R14M | 1.96
85 | R14W | 1.77
86 | R14F | 1.6
87 | R14Q | 1.89
88 | R14D | 1.01
89 | R14P | 0.9
90 | R14E | 1.32
91 | R14Y | 1.73
92 | R14K | 2.08
93 | E5Q | 1.91
94 | E5T | 1.73
95 | E5N | 1.5
96 | E5M | 2.33

Row | Variant | folding stability dG [kcal/mol]
97 | E5R | 1.66
98 | E5A | 1.86
99 | E5I | 1.51
100 | E5W | 2.35
101 | E5G | 1.65
102 | E5D | 2.01
103 | E5Y | 1.81
104 | E5P | 1.8
105 | E5H | 1.5
106 | E5K | 1.45
107 | E5L | 2.65
108 | E5S | 1.8
109 | E5F | 1.88
110 | E5V | 1.61
111 | A9C | 1.45
112 | A9N | 0.839
113 | A9D | 0.819
114 | A9S | 1.02
115 | A9W | 1.53
116 | A9F | 1.27
117 | A9R | 0.946
118 | A9V | 1.29
119 | A9L | 1.33
120 | A9I | 1.25

Row | Variant | folding stability dG [kcal/mol]
121 | A9Q | 0.885
122 | A9E | 1.03
123 | A9H | 1.18
124 | A9M | 1.05
125 | A9K | 0.809
126 | A9G | 1.13
127 | A9T | 1.05
128 | A9Y | 1.47
129 | A9P | 1.13
130 | K7V | 2.02
131 | K7P | 1.16
132 | K7A | 2.1
133 | K7Y | 1.91
134 | K7E | 1.98
135 | K7C | 2.17
136 | K7W | 2.15
137 | K7Q | 2.18
138 | K7F | 1.89
139 | K7M | 2.21
140 | K7R | 2.25
141 | K7S | 1.94
142 | K7D | 1.7
143 | K7I | 2.08
144 | K7G | 1.76

Row | Variant | folding stability dG [kcal/mol]
145 | K7H | 1.85
146 | K7N | 1.85
147 | K7T | 2.17
148 | K7L | 2.17
149 | E19F | 1.91
150 | E19L | 2.15
151 | E19Y | 1.79
152 | E19D | 2.03
153 | E19H | 1.7
154 | E19W | 1.94
155 | E19R | 2.16
156 | E19Q | 2.05
157 | E19S | 1.9
158 | E19C | 2.27
159 | E19G | 1.6
160 | E19M | 2.22
161 | E19V | 1.95
162 | E19P | 1.61
163 | E19K | 2.18
164 | E19N | 1.81
165 | E19I | 2.05
166 | E19T | 2.05
167 | E19A | 2.3
168 | R6I | 2.63

Row | Variant | folding stability dG [kcal/mol]
169 | R6D | 0.9
170 | R6N | 1.17
171 | R6Y | 3.31
172 | R6K | 1.75
173 | R6W | 3.4
174 | R6A | 1.63
175 | R6T | 1.54
176 | R6E | 1.54
177 | R6H | 2.1
178 | R6V | 2.27
179 | R6F | 3.38
180 | R6L | 3
181 | R6P | 0.99
182 | R6G | 1.11
183 | R6S | 1.3
184 | R6M | 3.24
185 | R6Q | 1.73
186 | A12K | 1.01
187 | A12E | 2
188 | A12L | 2.38
189 | A12T | 1.24
190 | A12I | 1.61
191 | A12Q | 1.69
192 | A12R | 1.18

Row | Variant | folding stability dG [kcal/mol]
193 | A12F | 2.47
194 | A12S | 1.34
195 | A12W | 2.4
196 | A12P | 0.925
197 | A12D | 0.919
198 | A12V | 1.49
199 | A12H | 1.9
200 | A12N | 1.04
201 | A12M | 2.11
202 | A12Y | 2.6
203 | A12G | 1.03
204 | A21D | 0.869
205 | A21E | 0.697
206 | A21C | 1.87
207 | E18Q | 1.5
208 | E18L | 2.8
209 | E18I | 2.6
210 | E18R | 0.996
211 | E18F | 2.24
212 | E18W | 2.32
213 | E18N | 1.17
214 | E18V | 2.3
215 | E18D | 1.53
216 | E18Y | 2.25

Row | Variant | folding stability dG [kcal/mol]
217 | E18K | 0.82
218 | E18H | 1.44
219 | E18T | 1.8
220 | E18A | 1.57
221 | E18G | 1.19
222 | E18M | 2.61
223 | E18S | 1.37
224 | E18P | 1.23
225 | N17M | 1.61
226 | N17V | 0.993
227 | N17I | 1.13
228 | N17K | 1.42
229 | N17H | 1.77
230 | N17S | 1.4
231 | N17T | 0.954
232 | N17F | 1.9
233 | N17D | 2.42
234 | N17W | 1.98
235 | N17Q | 1.81
236 | N17R | 1.46
237 | N17L | 1.65
238 | N17A | 1.4
239 | N17G | 1.08
240 | N17E | 1.71

Row | Variant | folding stability dG [kcal/mol]
241 | N17Y | 1.71
242 | N17P | 0.962
243 | D3W | 2.1
244 | D3E | 2.14
245 | D3A | 1.91
246 | D3P | 1.89
247 | D3Y | 1.93
248 | D3N | 1.98
249 | D3R | 1.75
250 | D3L | 2.06
251 | D3M | 2.02
252 | D3K | 1.73
253 | D3T | 1.95
254 | D3Q | 1.92
255 | D3S | 2.08
256 | D3H | 1.9
257 | D3G | 1.98
258 | D3I | 1.95
259 | D3F | 1.79
260 | D3C | 2.41
261 | D3V | 1.85
262 | E10N | 1.29
263 | E10I | 2.4
264 | E10K | 1.78

Row | Variant | folding stability dG [kcal/mol]
265 | E10A | 2.3
266 | E10M | 2.33
267 | E10T | 1.82
268 | E10D | 1.22
269 | E10G | 1.58
270 | E10V | 2.23
271 | E10H | 1.75
272 | E10S | 1.66
273 | E10Q | 1.93
274 | E10W | 2.31
275 | E10R | 2.03
276 | E10L | 2.38
277 | E10Y | 2.44
278 | E10P | 1.05
279 | E10F | 2.16
280 | A13H | 1
281 | A13P | 0.95
282 | A13M | 1.35
283 | A13V | 1.19
284 | A13L | 1.54
285 | A13N | 0.717
286 | A13S | 1.13
287 | A13D | 0.978
288 | A13I | 1.46

Row | Variant | folding stability dG [kcal/mol]
289 | A13T | 1.15
290 | A13G | 1.07
291 | A13W | 1.82
292 | A13K | 0.841
293 | A13Q | 0.906
294 | A13E | 0.902
295 | A13R | 0.884
296 | A13Y | 1.35
297 | A13F | 1.5
298 | K20G | 1.66
299 | K20N | 1.21
300 | K20S | 1.61
301 | K20F | 1.92
302 | K20V | 2.05
303 | K20Y | 2.11
304 | K20R | 1.89
305 | K20P | 0.917
306 | K20E | 2.11
307 | K20H | 1.73
308 | K20D | 1.33
309 | K20I | 1.9
310 | K20M | 2.19
311 | K20W | 1.98
312 | K20Q | 1.86

Row | Variant | folding stability dG [kcal/mol]
313 | K20A | 2.1
314 | K20L | 2.97
315 | K20T | 1.77
316 | S15R | 2.05
317 | S15W | 1.83
318 | S15M | 2.26
319 | S15N | 2.09
320 | S15F | 1.65
321 | S15G | 1.86
322 | S15P | 0.861
323 | S15D | 2.23
324 | S15C | 2.15
325 | S15I | 1.57
326 | S15Q | 2.21
327 | S15Y | 1.55
328 | S15V | 1.55
329 | S15E | 2.53
330 | S15K | 1.59
331 | S15L | 1.95
332 | S15T | 1.8
333 | S15H | 1.83
334 | S15A | 2.26
